This test addresses Recombinant TGF-β receptor 2 protein (UniProt P37173). Briefly: SPR; Biacore T200, 25 °C; TβR2 amine-coupled on a CM5 chip (50 µg/ml in 10 mM acetate pH 4.0); peptides in PBS injected at 60 µl/min, 180 s association, 540 s dissociation; 1:1 binding model. (In general: Surface plasmon resonance follows binding to a sensor surface in real time, without labels.)

Experimental findings from publication PMC8782923, “A Klotho-derived peptide protects against kidney fibrosis by targeting TGF-β signaling” (Nature Communications, 2022) are described below.

Recombinant TGF-β receptor 2 protein, sequence (P37173 23-166): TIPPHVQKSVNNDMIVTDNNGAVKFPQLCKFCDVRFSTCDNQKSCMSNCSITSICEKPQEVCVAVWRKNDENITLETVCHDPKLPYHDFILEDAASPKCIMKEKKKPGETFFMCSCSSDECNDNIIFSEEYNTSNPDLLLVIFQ

KP12 (peptide): the koff stood at 0.00233 s⁻¹.

What is called koff is a measure of how fast the partners let go of each other.
